Measured values from patent US20210246218A1 (LYVGEN BIOPHARMA SUZHOU, published 2021).

Biological target: T1, huCD137-C6His (human, UniProt Q07011 24-186)
T1 construct: Immobilised by amine coupling on the sensor chip; also called human CD137 protein (Biacore ligand); not shown: C-terminal 6xHis tag by the name C6His
Test: SPR (Biacore T200), huCD137-C6His immobilised, antibody as analyte, 1:1 model, 25 °C
Experimental: Flow cells of a CMS sensor chip (GE Healthcare Life Sciences) were activated with freshly mixed 50 mmol/L NHS and 200 mmol/L EDC for 420 seconds (10 μL/min). Then, huCD137-C6His in 10 mmol/L NaAC (pH 5.0) was injected onto the activated flow cell (10 μL/min) with HBS-EP (10 mM HEPES, 150 mM NaCl, 3 mM EDTA and 0.05% P20, pH 7.4) as the running buffer. The remaining active coupling sites were blocked with a 420 second injection of 1 mol/L ethanolamine The measurement was performed under 25° C., and HBS-EP was used as the running buffer. An injection of a tested analyte and surface regeneration of the CMS sensor chip were included in each running cycle. […] Buffer flow was maintained for approximately 180 seconds for dissociation. To remove the tested antibodies, an injection of 10 mM glycine-HCl for approximately 30 seconds was used for regeneration. The above procedures were repeated for each concentration of serially diluted tested antibody. The raw data of the surface plasmon resonance experiments were evaluated using Biacore T200 evaluation software 3.1 with a 1:1 binding model. Flow cell 1 was used as the reference flow cell.

T1 sequence (Q07011 24-186): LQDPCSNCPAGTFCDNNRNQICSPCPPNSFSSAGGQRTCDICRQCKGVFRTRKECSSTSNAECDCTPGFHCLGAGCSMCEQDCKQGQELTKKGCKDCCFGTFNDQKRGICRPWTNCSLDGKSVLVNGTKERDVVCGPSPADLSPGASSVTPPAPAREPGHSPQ

Kd: 18.9 nM
koff: 0.0138 s⁻¹
kon: 730000 M⁻¹ s⁻¹
B1: Clone 3712-IgG1v (IgG1v/kappa) (antibody)
heavy: QVQLVQSGAEVKKPGASVKVSCKASGYTFAGFEMHWVRQAPGQGLEWMGAIDPKTGGTDYNQKFKDRVTMTRDTSISTAYMELSRLRSDDTAVYYCARDLGYFDVWGQGTLVTVSSASTKGPSVFPLAPSSKSTSGGTAALGCLVKDYFPEPVTVSWNSGALTSGVHTFPAVLQSSGLYSLSSVVTVPSSSLGTQTYICNVNHKPSNTKVDKKVEPKSCDKTHTCPPCPAPELLGPSVFLFPPKPKDTLMISRTPEVTCVVVDVEHEDPEVKFNWYVDGVEVHNAKTKPREEQYNSTYRVVSVLTVLHQDWLNGKEYKCKVSNKALPAPIEKTISKAKGQPREPQVYTLPPSREEMTKNQVSLTCLVKGFYPSDIAVEWESNGQPENNYKTTPPVLDSDGSFFLYSKLTVDKSRWQQGNVFSCSVMHEALHNHYTQKSLSLSPGK
light: DIQMTQSPSSLSASVGDRVTITCRASQDIRSNLNWYQQKPGGAVKLLIYYTSRLHSGVPSRFSGSGSGTDYTLTISSLQPEDFATYFCQQSEKLPRTFGGGTKVEIRRTVAAPSVFIFPPSDEQLKSGTASVVCLLNNFYPREAKVQWKVDNALQSGNSQESVTEQDSKDSTYSLSSTLTLSKADYEKHKVYACEVTHQGLSSPVTKSFNRGEC
notes: copies: 2 + 2
